This series can be described thus: self-splicing fitness, log relative to wild type (ln ratio); higher = more splicing; Tetrahymena group I intron in knt gene, E. coli kanamycin selection, DiMSum; sequences stand for … in CUCUCU…GGAGGGAAAAGUUAUCAGGCAUGCACCUGGUAGCUAGUCUUUAAACCAAUAGAUUGCAUCGGUUUAAAAGGCAAGACCGUCAAAUUGCGGGAAAGGGGUCAACAGCCGUUCAGUACCAAGUCUCAGGGGAAACUUUGAGAUGGCCUUGCAAAGGGUAUGGUAAUAAGCUGACGGACAUGGUCCUAACCACGCAGCCAAGUCCUAAGUCAACAGAUCUUCUGUUGAUAUGGAUGCAGUUCACAGACUAAAUGUCGGUCGGGGAAGAUGUAUUCUUCUCAUAAGAUAUAGUCGGACCUCUCCUUAAUGGGAGCUAGCGGAUGAAGUGAUGCAACACUGGAGCCGCUGGGAACUAAUUUGUAUGCGAAAGUAUAUUGAUUAGUUUUGGAGUACUCGUGGUCG
The essentials:
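A randomised library covering all eight P1ex-region intron nucleotides was built with the intron in the knt kanamycin-resistance gene on pET-22b(+) and held in E. coli BL21(DE3). Cells were grown overnight at 37°C or 30°C on LB agar, with or without 25 μg/mL kanamycin, plus 100 μg/mL carbenicillin, 50 μM IPTG and 0.2% rhamnose, and pooled colonies were amplicon-sequenced on an Illumina HiSeq 2500. DiMSum fitness is the error-weighted combination of wild-type-normalised replicate fold changes, kanamycin versus none.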

± gives the uncertainty stated by the source.

Consider AACGAGCAAUAUUACGUGGU, for which the “self-splicing fitness (ln)” value is -4.57 ± 0.27 (30 °C) and -2.94 ± 0.17 (37 °C).

On to UACUAGCAAUAUUACGAGAU, for which the “self-splicing fitness (ln)” value is -2.46 ± 0.23 (30 °C) and -1.54 ± 0.28 (37 °C).

With UACGAGCAAUAUUACGACAA, the “self-splicing fitness (ln)” value runs as follows: (30 °C) -2.15 ± 0.47; (37 °C) -1.2 ± 0.31.

For the sequence UCGUAGCAAUAUUACGAAGA, the “self-splicing fitness (ln)” value (30 °C) is -3.36 ± 0.5.

Turning to AUGGAGCAAUAUUACGGUAG, the “self-splicing fitness (ln)” value is, setting by setting: (30 °C) -3.61 ± 0.33; (37 °C) -2.51 ± 0.41.

As for GUCAAGCAAUAUUACGUACC, the “self-splicing fitness (ln)” value reads like this: (30 °C) -0.597 ± 0.3; (37 °C) -1.73 ± 0.43.

As for UGGAAGCAAUAUUACGAAGG, the “self-splicing fitness (ln)” value was -2.12 ± 0.14 (30 °C) and -0.449 ± 0.18 (37 °C).

In the case of AGGCAGCAAUAUUACGCGUC, the “self-splicing fitness (ln)” value (30 °C) was -3.34 ± 0.3 and the “self-splicing fitness (ln)” value (37 °C) is -2.54 ± 0.3.

On to ACAGAGCAAUAUUACGGCCG, for which the “self-splicing fitness (ln)” value is -2.2 ± 0.27 (30 °C) and -1.33 ± 0.25 (37 °C).

AGUGAGCAAUAUUACGGUAG: the “self-splicing fitness (ln)” value (30 °C) was -3.02 ± 0.4.

Consider ACGAAGCAAUAUUACGUGCG, for which the “self-splicing fitness (ln)” value reads like this: (30 °C) -1.35 ± 0.074; (37 °C) -1.36 ± 0.089.

As for ACAGAGCAAUAUUACGAAAC, the “self-splicing fitness (ln)” value (30 °C) is -2.71 ± 0.29.

Consider UUAGAGCAAUAUUACGGGUA, for which the “self-splicing fitness (ln)” value was -3.06 ± 0.22 (30 °C) and -1.62 ± 0.19 (37 °C).

On to UACAAGCAAUAUUACGGAAC, for which the “self-splicing fitness (ln)” value was -3.75 ± 0.27 (30 °C) and -2.28 ± 0.25 (37 °C).

As for GGAGAGCAAUAUUACGAAAU, the “self-splicing fitness (ln)” value (37 °C) was -2.48 ± 0.48.

In the case of CAUCAGCAAUAUUACGAGGU, the “self-splicing fitness (ln)” value is, setting by setting: (30 °C) -3.46 ± 0.21; (37 °C) -2.86 ± 0.22.

Consider GAAGAGCAAUAUUACGCAUU, for which the “self-splicing fitness (ln)” value reads like this: (30 °C) -4.28 ± 0.2; (37 °C) -2.2 ± 0.2.

As to AGACAGCAAUAUUACGGAGU, the “self-splicing fitness (ln)” value by setting is: (30 °C) -4.06 ± 0.16; (37 °C) -2.28 ± 0.13.

Take GAAGAGCAAUAUUACGGGAA: the “self-splicing fitness (ln)” value is -3.54 ± 0.47 (30 °C) and -1.72 ± 0.28 (37 °C).

AAUCAGCAAUAUUACGGCCC: the “self-splicing fitness (ln)” value (30 °C) was -0.563 ± 0.18 and the “self-splicing fitness (ln)” value (37 °C) is 0.491 ± 0.2.

As for AUUGAGCAAUAUUACGCGCA, the “self-splicing fitness (ln)” value runs as follows: (30 °C) -1.48 ± 0.16; (37 °C) -1.08 ± 0.2.

Turning to UUACAGCAAUAUUACGAUCU, the “self-splicing fitness (ln)” value is, setting by setting: (30 °C) -1.88 ± 0.063; (37 °C) -1.02 ± 0.079.

For GUGAAGCAAUAUUACGGACU, the “self-splicing fitness (ln)” value reads like this: (30 °C) -0.0214 ± 0.15; (37 °C) -0.194 ± 0.19.

For CGUCAGCAAUAUUACGGGAU, the “self-splicing fitness (ln)” value is, setting by setting: (30 °C) -4.7 ± 0.39; (37 °C) -2.66 ± 0.2.

Take GCCUAGCAAUAUUACGCUAC: the “self-splicing fitness (ln)” value reads like this: (30 °C) -2.7 ± 0.21; (37 °C) -2.81 ± 0.36.

Consider AACAAGCAAUAUUACGUCGA, for which the “self-splicing fitness (ln)” value was -1.27 ± 0.087 (30 °C) and -0.532 ± 0.092 (37 °C).

For UUUCAGCAAUAUUACGAGCA, the “self-splicing fitness (ln)” value reads like this: (30 °C) -1.41 ± 0.14; (37 °C) -0.671 ± 0.12.

As to GCCCAGCAAUAUUACGGUCU, the “self-splicing fitness (ln)” value was -1.97 ± 0.063 (30 °C) and -0.732 ± 0.081 (37 °C).

As for UGCUAGCAAUAUUACGUGAU, the “self-splicing fitness (ln)” value is -1.88 ± 0.13 (30 °C) and -1.39 ± 0.16 (37 °C).

Consider GAAAAGCAAUAUUACGAAAG, for which the “self-splicing fitness (ln)” value is -3.5 ± 0.15 (30 °C) and -1.9 ± 0.14 (37 °C).

With ACCCAGCAAUAUUACGGUUU, the “self-splicing fitness (ln)” value reads like this: (30 °C) -0.863 ± 0.041; (37 °C) 0.0681 ± 0.056.

In the case of GAGCAGCAAUAUUACGUGCU, the “self-splicing fitness (ln)” value reads like this: (30 °C) -3.11 ± 0.2; (37 °C) -2.2 ± 0.23.

As for GUAUAGCAAUAUUACGUGGC, the “self-splicing fitness (ln)” value reads like this: (30 °C) -3.62 ± 0.33; (37 °C) -2.09 ± 0.28.

Consider AAGCAGCAAUAUUACGAGGA, for which the “self-splicing fitness (ln)” value was -2.82 ± 0.22 (30 °C) and -2.16 ± 0.18 (37 °C).

For the sequence UGCAAGCAAUAUUACGGGAC, the “self-splicing fitness (ln)” value (30 °C) was -4 ± 0.37.

Regarding CCCGAGCAAUAUUACGAGGG, the “self-splicing fitness (ln)” value was -4.84 ± 0.36 (30 °C) and -2.58 ± 0.22 (37 °C).

With CGAGAGCAAUAUUACGCGGC, the “self-splicing fitness (ln)” value (37 °C) is -1.9 ± 0.41.

As for GUCCAGCAAUAUUACGGAAU, the “self-splicing fitness (ln)” value reads like this: (30 °C) -0.712 ± 0.079; (37 °C) 0.0755 ± 0.094.

Take AGAAAGCAAUAUUACGGAUC: the “self-splicing fitness (ln)” value by setting is: (30 °C) -1.53 ± 0.13; (37 °C) -0.656 ± 0.17.

As for GGCGAGCAAUAUUACGUGCU, the “self-splicing fitness (ln)” value (30 °C) is -3.19 ± 0.34.
